Data on 1 substance can be found in paper PMC4345975.

The target of the assay is GFP–cyclin A (human) (UniProt P20248). The assay can be described thus: fluorescence cross-correlation spectroscopy.
Sequence of UniProt P20248 (P20248 whole entry): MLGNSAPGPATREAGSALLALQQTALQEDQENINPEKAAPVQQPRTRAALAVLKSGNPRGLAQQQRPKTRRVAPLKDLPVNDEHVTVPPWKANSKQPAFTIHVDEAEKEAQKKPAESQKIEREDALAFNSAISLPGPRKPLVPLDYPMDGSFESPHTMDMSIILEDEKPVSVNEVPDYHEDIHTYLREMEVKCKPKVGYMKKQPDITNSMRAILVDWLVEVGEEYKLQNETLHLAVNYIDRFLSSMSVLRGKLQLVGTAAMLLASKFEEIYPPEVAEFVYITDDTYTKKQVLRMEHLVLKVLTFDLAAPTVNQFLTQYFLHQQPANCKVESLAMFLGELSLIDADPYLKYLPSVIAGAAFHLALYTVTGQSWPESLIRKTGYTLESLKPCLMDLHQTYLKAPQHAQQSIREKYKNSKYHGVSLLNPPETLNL

In turn, “mCherry–SAMHD1 (from UniProt Q9Y3Z3 1-626) (natural protein)” showed a cross-correlation of 9.9%.
